Drawing on patent US20210130484A1 (SORRENTO THERAPEUTICS, published 2021), this text covers Kd for one molecule.

The assay deals with T1, Recombinant human his-tagged CD38 protein (human, UniProt P28907 43-300).
T1 construct: not shown: his tag
Put plainly: SPR (Biacore T200, 25 C), antibody captured on anti-human Fc CM5 chip, his-tagged human CD38 as analyte, steady state affinity model. On the procedure:
Binding kinetics of parent antibody CD38 A2 and variant antibody CD38 A2 SV was measured using surface plasmon resonance (SPR). Kinetic interaction between the parent or variant antibody and a his-tagged CD38 protein were measured at 25° C. using Biacore T200 surface plasmon resonance (GE Healthcare). Anti-human fragment crystallizable region (Fc region) antibody was immobilized on a CM5 sensor chip to approximately 8000 resonance units (RU) using standard N hydroxysuccinimide/N Ethyl-N′-(3-dimethylaminopropyl) carbodiimide hydrochloride (NHS/EDC) coupling methodology. The CD38 A2 parent antibody or CD38 A2 SV variant antibody (2 μg/mL) was captured for 60 seconds at a flow rate of 10 μL/minute. Recombinant human his-tagged CD38 protein was serially diluted in a running buffer of 0.01 M HEPES pH 7.4, 0.15 M NaCl, 3 mM EDTA, 0.05% v/v Surfactant P20 (HBS EP+). All measurements were conducted in HBS-EP+buffer with a flow rate of 30 μL/minute. Steady state affinity model was used to get affinity. The sensorgrams of the CD38 A2 parent antibody and CD38 A2 SV variant antibody are shown in FIGS. 3A and B, respectively, and their corresponding binding kinetics are listed in Table 3 below.
(Surface plasmon resonance follows binding to a sensor surface in real time, without labels.)

B1: variant antibody CD38 A2 SV (antibody, V domains shown)
VH: QVQLVESGGGLVKPGGSLRLSCAASGFTFSDDYMSWIRQAPGKGLEWVASVSNGRPTTYYADSVRGRFTISRDNAKNSLYLQMNSLRAEDTAVYYCAREDWGGEFTDWGRGTLVTVSS
VL: QSVLTQPPSASGTSGQRVTISCSGSSSNIGINFVYWYQHLPGTAPKLLIYKNNQRPSGVPDRFSGSKSGNSASLAISGLRSEDEADYYCAAWDDSLSGYVFGSGTKVTVL
notes: also called CD38-A2 SV mutant; CD38 A2 SV variant antibody
As for B1, the Kd was determined as 15.6 nM.

The Kd is a measure of binding affinity in units of concentration.
